Measured values: patent publication US7655453B2, “Recombinant Candida rugosa lipases” (Academia Sinica, priority 2001, dated 2010)

Substrate: CCCCC/C=C\C/C=C\CCCCCCCC(=O)O[C@H]1CC[C@@]2(C)C(=CC[C@H]3[C@@H]4CC[C@H]([C@H](C)CCCC(C)C)[C@@]4(C)CC[C@@H]32)C1
Assay: purified protein, by the assay type
Format: biochemical, Candida rugosa
Details: other: 37° C., pH 7.0, Trx-LIP4 29 nM, average of three independent experiments
Excerpt: Construction of expression vectors The E. coli expression vectors pET23a-LIP4-S19 and pET23a-trx-LIP4-S19 were constructed as described in Tang et al. (2000) Protein Exp. Purif. 20: 308-313. Open-reading frames of LIP1, LIP2, LIP3, and LIP5 without the leader sequence were obtained by reverse transcription-polymerase chain reaction (RT-PCR). See Longhi et al. (1992) Biochim. Biophy. […] The chimeric DNA sequences were constructed by replacing the SphI(184)-BstXI(304) restriction DNA fragment of LIP4 with the corresponding fragments of LIP1, LIP2, LIP3, or LIP5, respectively. The resulting sequences encode mature chimeric C. rugosa lipases, denoted as TrX-LIP4/lid1, TrX-LIP4/lid2, TrX-LIP4/lid3, and TrX-LIP4/lid5, and were confirmed by DNA sequencing.
Preparation of recombinant LIP4 from E. coli. E. coli strain AD494(DE3) (Novagen, Milwaukee, Wis.) harboring recombinant plasmid was grown overnight at 37° C. in Luria-Bertani (LB) broth supplemented with 50 μg/mL ampicillin and 15 μg/mL kanamycin. The cells were then diluted 20-fold into fresh medium and incubated with shaking at 25° C. After adding IPTG to give a final concentration of 0.05 mM, the cells were incubated at 10° C. until OD600 reached 1.0.
Purification of recombinant LIP4. After induction, the AD494(DE3) transformants were harvested by centrifugation at 4000 g and 4° C. for 10 min. The cell pellet was resuspended in TE buffer (20 mM Tris-HCl and 2.5 mM EDTA, pH 8.0). The cells were disrupted with a sonicator, and the soluble fractions of the cell lysates were then collected by centrifugation at 15,000 g at 4° C. for 30 min. The soluble fractions were concentrated by ultrafiltration on a 10,000 molecular weight cut-off membrane. These samples were then applied onto a DEAE-Sepharose CL-6B (Pharmacia Biotech) column equilibrated with TE buffer. Recombinant lipases were eluted using a linear gradient of 0 to 100 mM (NH4)2SO4 over 5 column volumes.
The eluted proteins were then applied to a Butyl-Sepharose 4 Fast Flow (Pharmacia Biotech) hydrophobic interaction column. The column was washed with 5 bed volumes of TE buffer plus 1 mM and then 4 mM CHAPS. Bound proteins were then eluted with 5 bed volumes of TE buffer containing 30 mM CHAPS. The eluted samples were dialyzed against TE buffer and stored in a storage buffer (60 mM KCl, 10 mM Tris-HCl, 1.25 mM EDTA, 1% Triton X-100, and 17% glycerol, pH 7.5) at −20° C. Protein concentrations in the fractions were measured with the Bio-Rad assay kit, and esterase activity was determined using p-nitrophenyl butyrate as a substrate. The molecular masses of the purified recombinant lipases and a commercial lipase (Lipase Type VII, Sigma L1754) were determined by SDS-PAGE analysis. […]

B1: Candida rugosa lipase 4 (LIP4), recombinant, E. coli thioredoxin fused to the N-terminal (Trx-LIP4) (Diutina rugosa) (protein)
chain: SMNSRGPAGRLGSVPTATLANGDTITGLNAIINEAFLGIPFAQPPVGNLRFKPPVPYSASLNGQKFTSYGPSCMQMNPLGNWDSSLPKAAINSLMQSKLFQAVLPNGEDCLTINVVRPSGTKPGANLPVMVWIFGGGFEVGGSSLFPPAQMITASVLMGKPIIHVSMNYRVASWGFLAGPDIKAEGSGNAGLHDQRLGLQWVADNIAGFGGDPSKVTIFGESAGSMSVMCQLLWNDGDNTYNGKPLFRAAIMQSGAMVPSDPVDGPYGTQIYDQVVASAGCGSASDKLACLRSISNDKLFQATSDTPGALAYPSLRLSFLPRPDGTFITDDMFKLVRDGKCANVPVIIGDQNDEGTVFALSSLNVTTDAQARQYFKESFIHASDAEIDTLMAAYPSDITQGSPFDTGIFNAITPQFKRIAAVLGDLAFTLPRRYFLNHFQGGTKYSFLSKQLSGLPVIGTHHANDIVWQDFLVSHSSAVYNNAFIAFANDLDPNKAGLLVNWPKYTSSSQSGNNLLQINALGLYTGKDNFRTAGYDALFTNPSSFFV
Km: 104 ± 10 10^−3 mM
Vmax: 2.9 µmol/min/mg
kcat: 3.37 ± 0.135 s⁻¹
kcat/Km: 32300 ± 2320 M⁻¹ s⁻¹
